The values that follow come from US20230295293A1, “BINDING MOLECULES AGAINST FRa” (AstraZeneca AB, priority 2022, published 2023).

In assay [1] the target is Cyno FRα ECD-Avi-His (cynomolgus monkey). Description: HTRF antigen binding assay; hybridoma supernatant at 25%, 1 nM biotinylated antigen. For orientation: Time-resolved FRET reads energy transfer from a long-lived donor to a nearby acceptor.
Assay [2] concerns the target Human FRα ECD-Avi-His (human). The assay is described as above.

Sequence of Human FRα ECD-Avi-His (human) (chain, as listed by the source limits assumed): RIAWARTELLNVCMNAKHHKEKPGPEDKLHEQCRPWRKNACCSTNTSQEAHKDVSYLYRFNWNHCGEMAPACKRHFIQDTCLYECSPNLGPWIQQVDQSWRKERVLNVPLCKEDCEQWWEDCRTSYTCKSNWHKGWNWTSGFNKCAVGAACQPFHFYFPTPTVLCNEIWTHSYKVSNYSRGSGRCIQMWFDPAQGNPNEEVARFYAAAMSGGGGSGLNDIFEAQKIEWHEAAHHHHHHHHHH
Sequence of Cyno FRα ECD-Avi-His (cynomolgus monkey) (chain, as listed by the source limits assumed): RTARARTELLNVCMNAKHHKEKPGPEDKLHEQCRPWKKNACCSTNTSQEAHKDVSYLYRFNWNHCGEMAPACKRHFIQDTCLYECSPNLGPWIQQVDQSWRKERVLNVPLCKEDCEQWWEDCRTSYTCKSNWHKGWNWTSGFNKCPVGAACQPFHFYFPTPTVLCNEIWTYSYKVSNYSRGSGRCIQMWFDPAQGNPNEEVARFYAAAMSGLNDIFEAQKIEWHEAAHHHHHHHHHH

B1: AB1370026 (hybridoma IgG) (antibody, V domains shown)
VH: EVQLVESGGGLVKPGGSLRLSCAASGFTFSSYAMSWVRQAPGKGLEWVSSISSGRSYIYYADSVKGRFTISRDNAKNSLYLKMNSLRDEDTAVYYCAREMQQLALDYWGQGTLVTVSS
VL: DIQMTQSPSSLSASVGDRVTITCRASQGISNFLAWFQQAPGKAPKSLIYAASSLQSGVPSKFSGSGSGTDFTLTISSLQPEDFATYYCQQYNSYPFTFGQGTKLEIK
Regarding B1, the % Delta F was found to be 214 % Delta F in assay [1] and 271 % Delta F in assay [2].

B2: AB1370083 (hybridoma IgG) (antibody, V domains shown)
VH: EVQLVESGGGLVKPGGSLRLSCAASGFTFSSYNMNWVRQAPGKGLEWVSSISSGSSYIYYADSMKGRFTISRDNAKNSLFLQMNSLRAEDTAVYYCARGMTTLTFDYWGQGTLVTVSS
VL: DIQMTQSPSSLSASVGDRVTITCRASQGISTFLAWFQQKPGKAPKSLIYAASSLQSGVPSKFSGSGSETDFTLTISSLQPEDFATYYCQQYISYPLTFGGGTKVEIK
Consider B2, for which the % Delta F came out at 85.2 % Delta F in assay [1] and 140 % Delta F in assay [2].

B3: AB1370095 (hybridoma IgG) (antibody, V domains shown)
VH: EVQLVESGGGLVKPGGSLRLSCAASGFTFSSYSMNWVRQAPGKGLEWVSSISSRSSYVYYADSVKGRFTISRDNAKNSLYLQMNSLRAEDTAVYYCARGMTTLTFDYWGQGTLVTVSS
VL: DIQMTQSPSSLSASVGDRVTITCRASQGISSFLAWFQQKPGKAPKSLIYAASSLQSGVPSKFSGSGSGTDFTLTISSLQPEDFATYYCQQYNSYPLTFGGGTKVEIK
As to B3, the % Delta F stood at 85.3 % Delta F in assay [1] and 126 % Delta F in assay [2].

B4: AB1370035 (hybridoma IgG) (antibody, V domains shown)
VH: QVQLQQSGPGLVKPSQTLSLTCAISGDSVSSNSAAWNWIRQSPSRGLEWLGRTYYRSNWYNDYTLSVKSRITVNPDTSKNQFSLQLNSVTPEDTAVYYCVRGVGRFDSWGQGTLVTVSS
VL: DIQMTQSPSTLSASVGDRVIITCRASQSISSWLAWYQQKPGKAPKLLIYKASSLESGVPSRFSGSGSGTEFTLTITSLQPDDFASYYCQEYKTYSIFTFGPGTKVDIK
With B4, the % Delta F in assay [1] came to 141 % Delta F; in assay [2] it was 225 % Delta F.
